Test results: PMC10786891, “Massively parallel profiling of RNA-targeting CRISPR-Cas13d”

T1: EsCas13d, nuclease-dead (Eubacterium siraeum, UniProt B0MS50, R295A;H300A;R849A;H854A)
T1 sequence: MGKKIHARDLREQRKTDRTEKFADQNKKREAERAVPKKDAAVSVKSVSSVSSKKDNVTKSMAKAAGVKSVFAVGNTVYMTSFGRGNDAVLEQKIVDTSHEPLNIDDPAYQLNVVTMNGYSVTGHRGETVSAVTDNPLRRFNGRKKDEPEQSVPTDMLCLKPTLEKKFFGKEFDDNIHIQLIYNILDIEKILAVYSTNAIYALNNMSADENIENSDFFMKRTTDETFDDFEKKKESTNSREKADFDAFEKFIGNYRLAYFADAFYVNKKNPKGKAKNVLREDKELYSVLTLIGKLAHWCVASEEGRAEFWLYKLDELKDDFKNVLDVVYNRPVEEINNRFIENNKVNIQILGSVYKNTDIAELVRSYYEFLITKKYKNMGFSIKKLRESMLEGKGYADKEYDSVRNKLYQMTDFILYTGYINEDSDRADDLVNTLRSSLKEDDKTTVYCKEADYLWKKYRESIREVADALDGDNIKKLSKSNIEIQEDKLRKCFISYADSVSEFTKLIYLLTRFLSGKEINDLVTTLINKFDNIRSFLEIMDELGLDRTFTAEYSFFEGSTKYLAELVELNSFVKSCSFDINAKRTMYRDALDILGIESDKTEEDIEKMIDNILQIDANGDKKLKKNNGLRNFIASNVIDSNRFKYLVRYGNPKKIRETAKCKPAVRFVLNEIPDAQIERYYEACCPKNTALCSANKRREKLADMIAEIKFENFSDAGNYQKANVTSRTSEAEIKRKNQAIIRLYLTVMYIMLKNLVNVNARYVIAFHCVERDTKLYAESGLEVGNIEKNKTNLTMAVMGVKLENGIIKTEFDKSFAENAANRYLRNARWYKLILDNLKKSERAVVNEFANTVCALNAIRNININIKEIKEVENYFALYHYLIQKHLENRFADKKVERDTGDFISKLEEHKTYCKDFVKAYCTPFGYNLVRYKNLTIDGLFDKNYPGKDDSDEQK


target: T1, EsCas13d, nuclease-dead; experiment: crRNA (strand 1, pre-loaded); Mg2+; 40 mM Tris-HCl pH 7.5, 150 mM NaCl, 6 mM MgCl2, 1 mM DTT, 0.1% Tween-20, 0.2 mg/ml BSA; 25 C; 10 min per concentration, then washed; settings: tags: His6-TwinStrep-SUMO cleaved; N-terminal SNAP kept (SNAP-Surface 488); label: 3' end held by stalled T7 RNA polymerase

Binder | Kd
target 2 MT 5'PFS CUC 3'PFS UCG (mixed) RNA 1: CACCCGUGCAAAAUUGCAGGGGUCUAAAACCUUCUCCAAAUUGUUUCAUCCU RNA 2: GGGAAUGGAUCCACAUCUACGAAUUCCUCAGGAUGAAACAAUUUGGAGAAGUCGAGAUCGGAAGAGCACACGU | 4 ± 0.8 nM
target 2 MT 5'PFS CCC 3'PFS UCC (mixed) RNA 1: CACCCGUGCAAAAUUGCAGGGGUCUAAAACCUUCUCCAAAUUGUUUCAUCCU RNA 2: GGGAAUGGAUCCACAUCUACGAAUUCCCCAGGAUGAAACAAUUUGGAGAAGUCCAGAUCGGAAGAGCACACGU | 2.1 ± 0.5 nM
target 2 MT 5'PFS ACU 3'PFS CCG (mixed) RNA 1: CACCCGUGCAAAAUUGCAGGGGUCUAAAACCUUCUCCAAAUUGUUUCAUCCU RNA 2: GGGAAUGGAUCCACAUCUACGAAUUCACUAGGAUGAAACAAUUUGGAGAAGCCGAGAUCGGAAGAGCACACGU | 6.2 ± 0.6 nM
target 2 MT 5'PFS CUG 3'PFS CAC (mixed) RNA 1: CACCCGUGCAAAAUUGCAGGGGUCUAAAACCUUCUCCAAAUUGUUUCAUCCU RNA 2: GGGAAUGGAUCCACAUCUACGAAUUCCUGAGGAUGAAACAAUUUGGAGAAGCACAGAUCGGAAGAGCACACGU | 3.7 ± 0.4 nM
target 2 MT 5'PFS CGG 3'PFS UCG (mixed) RNA 1: CACCCGUGCAAAAUUGCAGGGGUCUAAAACCUUCUCCAAAUUGUUUCAUCCU RNA 2: GGGAAUGGAUCCACAUCUACGAAUUCCGGAGGAUGAAACAAUUUGGAGAAGUCGAGAUCGGAAGAGCACACGU | 7 ± 0.6 nM
target 2 MT 5'PFS GGC 3'PFS UGA (mixed) RNA 1: CACCCGUGCAAAAUUGCAGGGGUCUAAAACCUUCUCCAAAUUGUUUCAUCCU RNA 2: GGGAAUGGAUCCACAUCUACGAAUUCGGCAGGAUGAAACAAUUUGGAGAAGUGAAGAUCGGAAGAGCACACGU | 18 ± 4 nM
target 2 MT 5'PFS CUG 3'PFS CAG (mixed) RNA 1: CACCCGUGCAAAAUUGCAGGGGUCUAAAACCUUCUCCAAAUUGUUUCAUCCU RNA 2: GGGAAUGGAUCCACAUCUACGAAUUCCUGAGGAUGAAACAAUUUGGAGAAGCAGAGAUCGGAAGAGCACACGU | 2.33 ± 0.21 nM
target 2 MT 5'PFS AGA 3'PFS CGC (mixed) RNA 1: CACCCGUGCAAAAUUGCAGGGGUCUAAAACCUUCUCCAAAUUGUUUCAUCCU RNA 2: GGGAAUGGAUCCACAUCUACGAAUUCAGAAGGAUGAAACAAUUUGGAGAAGCGCAGAUCGGAAGAGCACACGU | 6.5 ± 1.2 nM
target 2 MT 5'PFS ACC 3'PFS UUU (mixed) RNA 1: CACCCGUGCAAAAUUGCAGGGGUCUAAAACCUUCUCCAAAUUGUUUCAUCCU RNA 2: GGGAAUGGAUCCACAUCUACGAAUUCACCAGGAUGAAACAAUUUGGAGAAGUUUAGAUCGGAAGAGCACACGU | 7.8 ± 0.9 nM
target 2 MT 5'PFS ACC 3'PFS UUG (mixed) RNA 1: CACCCGUGCAAAAUUGCAGGGGUCUAAAACCUUCUCCAAAUUGUUUCAUCCU RNA 2: GGGAAUGGAUCCACAUCUACGAAUUCACCAGGAUGAAACAAUUUGGAGAAGUUGAGAUCGGAAGAGCACACGU | 11.2 ± 2.2 nM
target 2 MT 5'PFS ACU 3'PFS CCA (mixed) RNA 1: CACCCGUGCAAAAUUGCAGGGGUCUAAAACCUUCUCCAAAUUGUUUCAUCCU RNA 2: GGGAAUGGAUCCACAUCUACGAAUUCACUAGGAUGAAACAAUUUGGAGAAGCCAAGAUCGGAAGAGCACACGU | 7.3 ± 1.8 nM
target 2 MT 5'PFS CUG 3'PFS CAU (mixed) RNA 1: CACCCGUGCAAAAUUGCAGGGGUCUAAAACCUUCUCCAAAUUGUUUCAUCCU RNA 2: GGGAAUGGAUCCACAUCUACGAAUUCCUGAGGAUGAAACAAUUUGGAGAAGCAUAGAUCGGAAGAGCACACGU | 2.29 ± 0.24 nM
target 2 MT 5'PFS UAA 3'PFS UUC (mixed) RNA 1: CACCCGUGCAAAAUUGCAGGGGUCUAAAACCUUCUCCAAAUUGUUUCAUCCU RNA 2: GGGAAUGGAUCCACAUCUACGAAUUCUAAAGGAUGAAACAAUUUGGAGAAGUUCAGAUCGGAAGAGCACACGU | 14 ± 2.1 nM
target 2 MT 5'PFS ACC 3'PFS UUA (mixed) RNA 1: CACCCGUGCAAAAUUGCAGGGGUCUAAAACCUUCUCCAAAUUGUUUCAUCCU RNA 2: GGGAAUGGAUCCACAUCUACGAAUUCACCAGGAUGAAACAAUUUGGAGAAGUUAAGAUCGGAAGAGCACACGU | 9.6 ± 2.8 nM
target 2 MT 5'PFS CGA 3'PFS CGA (mixed) RNA 1: CACCCGUGCAAAAUUGCAGGGGUCUAAAACCUUCUCCAAAUUGUUUCAUCCU RNA 2: GGGAAUGGAUCCACAUCUACGAAUUCCGAAGGAUGAAACAAUUUGGAGAAGCGAAGAUCGGAAGAGCACACGU | 5.3 ± 1 nM
target 2 MT 5'PFS ACC 3'PFS UUC (mixed) RNA 1: CACCCGUGCAAAAUUGCAGGGGUCUAAAACCUUCUCCAAAUUGUUUCAUCCU RNA 2: GGGAAUGGAUCCACAUCUACGAAUUCACCAGGAUGAAACAAUUUGGAGAAGUUCAGAUCGGAAGAGCACACGU | 8.2 ± 1.4 nM
target 2 MT 5'PFS CGA 3'PFS AGA (mixed) RNA 1: CACCCGUGCAAAAUUGCAGGGGUCUAAAACCUUCUCCAAAUUGUUUCAUCCU RNA 2: GGGAAUGGAUCCACAUCUACGAAUUCCGAAGGAUGAAACAAUUUGGAGAAGAGAAGAUCGGAAGAGCACACGU | 4.6 ± 0.9 nM
target 2 MT 5'PFS AUA 3'PFS CGC (mixed) RNA 1: CACCCGUGCAAAAUUGCAGGGGUCUAAAACCUUCUCCAAAUUGUUUCAUCCU RNA 2: GGGAAUGGAUCCACAUCUACGAAUUCAUAAGGAUGAAACAAUUUGGAGAAGCGCAGAUCGGAAGAGCACACGU | 7.8 ± 0.8 nM
target 2 MT 5'PFS CAU 3'PFS UGC (mixed) RNA 1: CACCCGUGCAAAAUUGCAGGGGUCUAAAACCUUCUCCAAAUUGUUUCAUCCU RNA 2: GGGAAUGGAUCCACAUCUACGAAUUCCAUAGGAUGAAACAAUUUGGAGAAGUGCAGAUCGGAAGAGCACACGU | 3.1 ± 0.5 nM
target 2 MT 5'PFS CGA 3'PFS AGC (mixed) RNA 1: CACCCGUGCAAAAUUGCAGGGGUCUAAAACCUUCUCCAAAUUGUUUCAUCCU RNA 2: GGGAAUGGAUCCACAUCUACGAAUUCCGAAGGAUGAAACAAUUUGGAGAAGAGCAGAUCGGAAGAGCACACGU | 7.8 ± 1.1 nM
target 2 MT 5'PFS CAU 3'PFS UGA (mixed) RNA 1: CACCCGUGCAAAAUUGCAGGGGUCUAAAACCUUCUCCAAAUUGUUUCAUCCU RNA 2: GGGAAUGGAUCCACAUCUACGAAUUCCAUAGGAUGAAACAAUUUGGAGAAGUGAAGAUCGGAAGAGCACACGU | 4.5 ± 1.4 nM
target 2 MT 5'PFS CGA 3'PFS CGC (mixed) RNA 1: CACCCGUGCAAAAUUGCAGGGGUCUAAAACCUUCUCCAAAUUGUUUCAUCCU RNA 2: GGGAAUGGAUCCACAUCUACGAAUUCCGAAGGAUGAAACAAUUUGGAGAAGCGCAGAUCGGAAGAGCACACGU | 5.6 ± 1.5 nM
target 2 MT 5'PFS CAU 3'PFS UGU (mixed) RNA 1: CACCCGUGCAAAAUUGCAGGGGUCUAAAACCUUCUCCAAAUUGUUUCAUCCU RNA 2: GGGAAUGGAUCCACAUCUACGAAUUCCAUAGGAUGAAACAAUUUGGAGAAGUGUAGAUCGGAAGAGCACACGU | 4.4 ± 0.5 nM
target 2 MT 5'PFS UAA 3'PFS UUU (mixed) RNA 1: CACCCGUGCAAAAUUGCAGGGGUCUAAAACCUUCUCCAAAUUGUUUCAUCCU RNA 2: GGGAAUGGAUCCACAUCUACGAAUUCUAAAGGAUGAAACAAUUUGGAGAAGUUUAGAUCGGAAGAGCACACGU | 13.4 ± 1.9 nM
target 2 MT 5'PFS AUA 3'PFS CGA (mixed) RNA 1: CACCCGUGCAAAAUUGCAGGGGUCUAAAACCUUCUCCAAAUUGUUUCAUCCU RNA 2: GGGAAUGGAUCCACAUCUACGAAUUCAUAAGGAUGAAACAAUUUGGAGAAGCGAAGAUCGGAAGAGCACACGU | 9.5 ± 2.1 nM
target 1 insG 3' of 1,insU 3' of 1 (mixed) RNA 1: CACCCGUGCAAAAAUGCAGGGGUCUAAAACUGAGCGGAUAACCUCUCUAUGG RNA 2: GGGAAUGGAUCCACAUCUACGAAUUCGUACCAUAGAGAGGUUAUCCGCUCAGUCCGAGAUCGGAAGAGCACACGU | 10.5 ± 1.2 nM
target 1 insC 3' of 11,insU 3' of 7 (mixed) RNA 1: CACCCGUGCAAAAAUGCAGGGGUCUAAAACUGAGCGGAUAACCUCUCUAUGG RNA 2: GGGAAUGGAUCCACAUCUACGAAUUCGUACCAUAGAGAGGUCUAUCUCGCUCACCGAGAUCGGAAGAGCACACGU | 39 ± 5 nM
target 1 insC 3' of 16,insU 3' of 7 (mixed) RNA 1: CACCCGUGCAAAAAUGCAGGGGUCUAAAACUGAGCGGAUAACCUCUCUAUGG RNA 2: GGGAAUGGAUCCACAUCUACGAAUUCGUACCAUAGACGAGGUUAUCUCGCUCACCGAGAUCGGAAGAGCACACGU | 75 ± 8 nM
